For 139 substances, amyloid nucleation score results are on record in the supplement of paper PMC12042874.

A short description of this series: amyloid nucleation score (Sup35N fusion, yeast selection) (log enrichment); library NNK2; higher = more nucleation; inactive = no reads after selection. The gist of the method: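 The nucleation score is a DiMSum log enrichment of output over input reads, centred on the mode score of non-aggregating sequences. Sequences under 100 input reads were excluded, and reads came from Illumina sequencing of plasmid inserts. Psi-negative yeast expressing Sup35N fused to peptides of 20 random codons were induced with 100 μM copper sulfate for 24 hours and grown 7 days at 30°C on medium lacking adenine and uracil. Random libraries had three technical output replicates.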

± gives the uncertainty stated by the source.

As to ITCDRYITDVIDNEA, the amyloid nucleation score entry was “inactive”.
In turn, PSHFVGFCAHSYDVGVFMWV displayed an amyloid nucleation score of 0.077 ± 0.42.
Under SVSVEYWCSLWDRRDKGSSQ stands 0.619 ± 0.81; under LTSNPVPSNLT, 3.35 ± 0.076.
Under SGWSNFVLCILHTTTGMKRH stands 3.95 ± 0.071.
Under GRGERCKGSKIGCSRKAKID stands 0.98 ± 0.3; under NSMNVGSFRSSEWLVLFENV, -0.453 ± 1.1.
SVRVA gave an amyloid nucleation score of 1.66 ± 0.26.
Under NYSIFDWTCSSKMSIITCAK stands 5.697 ± 0.029; under AVIMALNIGWRRRDSGWDGV, 5.9 ± 0.083; under REVLWCLPDQGELPGGVTFG, 2.44 ± 0.08.
Under SFGTFVSGTALLGSMFCTTG stands 0.285 ± 0.29; under GSCNRKRHDVAYHLKCGMVA, 1.09 ± 0.14; under DYFAIRWGQVT, “inactive”.
To SAVIFAESTCV belongs -0.512 ± 0.79.
Regarding FRSGCQFLWHERLNNNVTNA, the amyloid nucleation score was 1.54 ± 0.093.
In turn, IVGDVHSLMILRVKSAFKFT yielded an amyloid nucleation score of 2.81 ± 0.16.
To CYFSGSVSRTSVRLVLLSNG belongs -0.573 ± 1.1; to NDYEPRCMFGRIVCSNGPEM, 1.14 ± 0.42.
On to IYMDLLQNQSIR, for which the amyloid nucleation score is -1.27 ± 1.1.
Under SGYSPSLFCKVFPWANELCS stands -1.12 ± 1.1; under DCFTRYGCAGKYRVGAQGSS, 1.47 ± 0.47.
To MKTSLYRRGNPRLYREKSRK belongs 1.01 ± 0.27; to ANRWSMQGSERASSANWHRW, 4.63 ± 0.054.
Under CFSCVFIMDCCRH stands 7.954 ± 0.062; under RAWKSPYCLNTRMSTEGHEY, 0.348 ± 0.48; under FTASFFP, 0.05 ± 0.26.
Consider LICLSMSQCMDCNLGNSWWV, for which the amyloid nucleation score entry was “inactive”.
To AQGILVLLSSD belongs 0.23 ± 0.47; to KLDWSNRLCSLNFECSCQLL, 3.78 ± 0.094; to YFRCTHYTKTGTLVGDISVC, -0.657 ± 0.38.
To NMPFYRFAKRTWFRNPQSFV belongs -1.19 ± 1.
Under IEVGRHRWALWRVAQSRLIG stands 0.308 ± 0.25; under SIYVSALDGMYSGGRDLWKR, 0.601 ± 0.48; under KYHRI, -0.721 ± 0.74.
For the substance SHYCGLVCLELEIWLYP, the amyloid nucleation score amounted to 1.31 ± 0.18.
FHRRMFLCAVWLLRLTIVRQ: the amyloid nucleation score turned out to be 0.492 ± 0.39.
Take GNEVRGNTMVENPTMSLVMG: the amyloid nucleation score was 0.712 ± 0.39.
RRISLLFTYYVRQSLSCLIV gave an amyloid nucleation score of 4.94 ± 0.086.
To NRCYHFRDCQVYLTQDASWA belongs 8.515 ± 0.048; to RLSNELKRMVYSDQVQGYSR, -0.357 ± 0.48.
To YFWQEIVAFNKVESLILELG belongs -0.451 ± 1.
Under NRIGDIGFSPNMCQAPNDVD stands 0.095 ± 0.53.
As to AKVSSMVQECNLYLELETRL, the amyloid nucleation score entry is “inactive”.
For TWRNYS, the amyloid nucleation score is -0.279 ± 0.35.
Under RGDSATLVGCNVVMGRRFSL stands 4.32 ± 0.099.
Regarding MTALATRRCHPLYISA, the amyloid nucleation score is -0.661 ± 0.42.
To VDGVKTSIKGRNFI belongs -0.259 ± 0.45.
To PESGGNAIFAHERMQLGRRS belongs 0.92 ± 0.57; to RKNSLHTMWMGKMVCSCFKL, 5.69 ± 0.063.
To APKGMTLFPQMLTLMCNTVG belongs 0.56 ± 0.74; to ARWLSSAYSMIYEFSLLKSW, 0.706 ± 0.74; to VTFYLGSSE, 0.155 ± 1.1.
NLFKDTISSLHNGIETIAPF: the amyloid nucleation score was -0.82 ± 0.61.
Under YNLCWCRVIDFCLCWYCILW stands 4.94 ± 0.081; under CMEETMVSSLKLLTRPMTSR, 0.052 ± 0.29.
Under STYRSASMVQVGRLVHGNQW stands 5.38 ± 0.063; under DLYQALSISV, -0.308 ± 0.39.
Under LHIGKFNVNLFN stands 4.32 ± 0.045; under DFMFFVYPSNSMLKGISRGR, -1.77 ± 0.48; under YDVGTPRIRDFLCAIDRGNH, 0.106 ± 0.34.
In turn, WFKVH showed an amyloid nucleation score of 0.26 ± 0.8.
On to PWLDIFNVACTSRGSLVWYE, for which the amyloid nucleation score was -0.855 ± 1.1.
Under FWIEDF stands -0.291 ± 1.1; under GLFLRSTP, -0.402 ± 0.42; under CLAVIQWFPCIVDMGLECGF, 2.96 ± 0.049.
To DPSGYHVSFHSGDGGCEYC belongs 2.71 ± 0.085; to VRLVNAVNRRTKIHDIYLRV, 0.664 ± 0.26; to FMYRDLYRFMYCVVCAQFFH, 4.95 ± 0.05.
To SVNASGT belongs -0.114 ± 0.8.
For the substance AWESNCIVRFKY, the amyloid nucleation score was determined as 4.36 ± 0.089.
To ASVILTEPFMQGFSIYVGAG belongs -0.746 ± 0.49; to DTDDVNHYSFTPRALSSGFI, “inactive”.
Regarding FQYYDKYLYWFFVNN, the amyloid nucleation score was -2.12 ± 0.73.
On to GHKDSEDGLNTKFFRRSN, for which the amyloid nucleation score result is “inactive”.
Substance IDSVIKTEARGQGVVARTRA registered an amyloid nucleation score of 1.33 ± 0.28.
Turning to ISGLETYLRSYWICIWSMWA, the amyloid nucleation score was determined as 3.02 ± 0.15.
To MSSASQILAHDYQNSYG belongs -0.383 ± 0.32; to NYLQCWVFGRESMSLYKIWL, -0.081 ± 1.1; to GGSLPMFWKIMPGRHCGK, -0.019 ± 0.32.
To RIVRQSVYQELFYFGQRGSL belongs 4.19 ± 0.072.
To YDKDFCDRRTEPKKFVLRHA belongs 0.092 ± 0.4.
With FFGVSWRWARNFCYDMGQVY, the amyloid nucleation score is -0.177 ± 1.
Under GLLSCMPCRGINLLPSVIRR stands 1.21 ± 0.61; under CYVDFSYLVNKFYWGPRWMP, -0.049 ± 0.5; under RVLGWCSNSWMVEMSNECSW, 1.13 ± 0.3.
To WPYGVGLINGWSTMVSYKVL belongs 0.325 ± 0.8.
To FCLFQRDKTHSVWMGLKKFQ belongs -1.06 ± 0.78.
As for YWLYMVAHAPKSFIE, the amyloid nucleation score amounted to 0.509 ± 0.8.
Under TTGRTYIRLIYIMCVSMNVS stands “inactive”.
To SMFFYSFNWLQFYFRVDVHW belongs -0.311 ± 1.1; to LNFFNDR, “inactive”; to KPIIGGVSTERSLVIAGVHL, 0.011 ± 0.79.
To YLYGCGNMVVIWRSGRQMDI belongs -1.42 ± 0.49; to DQKTMTTVL, 0.368 ± 0.45; to FYMLASPSSTLDSTPKVRSC, -0.665 ± 1.1.
For ALEFNT, the amyloid nucleation score is 4.14 ± 0.1.
Consider PMSDMFYFFGFECSRLIMSN, for which the amyloid nucleation score entry was “inactive”.
To YDKSYFVFFNP belongs 1.36 ± 0.27; to GLVRSRVWRRASSPGYGECV, 1.3 ± 0.33.
To VSELGSGSFIFCTFLADFHM belongs 6.3 ± 0.079; to IIENDICHWSDICMEDLMDW, 0.186 ± 0.54.
To GICRKNDRTSDQRYFVKSL belongs -0.575 ± 0.53; to VSRGGKHGVQIT, “inactive”; to NDSQTTLGLFDCRVREADHR, -0.003 ± 1.1.
For the substance RGFNGSLR, the amyloid nucleation score turned out to be 0.552 ± 0.4.
VRLFLAIMVYVLHSHHRYAD returned an amyloid nucleation score of 0.978 ± 0.74.
To ILGSFEHSTQGKYSYWGMRG belongs 4.51 ± 0.066.
To VCRVFIKLYI belongs 1.03 ± 0.21; to VYNFSFSNSNVK, 6.669 ± 0.047.
LILNLVFFVIPDTVFYTSGL gave an amyloid nucleation score of 6.732 ± 0.058.
To LHAHYWCRVSKEPCCWCKMG belongs 1.02 ± 0.49; to GGCSTRWHKDVYDNGDNGDF, -0.545 ± 0.63.
For ACFNLEKIVINYFWFS, the amyloid nucleation score was 6.999 ± 0.039.
To PRSSAVYIRTLRVSQKVDPM belongs 2.64 ± 0.11.
Turning to FVNLRVILH, the amyloid nucleation score was determined as 5.18 ± 0.052.
On to FLRFLVCLG, for which the amyloid nucleation score was -0.22 ± 1.1.
Take QYYVGYLT: the amyloid nucleation score was -0.738 ± 0.61.
Under NLHLSGKMGSPTFRVRIYAH stands “inactive”.
To YCFRS belongs -0.542 ± 0.64; to IFNLSRAQTVINL, 5.34 ± 0.063.
On to TFFIMEIFDFC, for which the amyloid nucleation score worked out at 1.8 ± 0.15.
To YDCLSWRLKEERQATFGFRG belongs 0.505 ± 0.51; to TLWVWVCCFQDWCSVSRGGR, 8.892 ± 0.03.
In the case of GKDGTFRVVPRQEDRSAHWL, the amyloid nucleation score is -0.464 ± 1.1.
Regarding ENIISERAFS, the amyloid nucleation score entry was “inactive”.
Under MLSEADNLRRSYRHRIYEFI stands -0.874 ± 0.76; under PDWLCEVKRIYELIGYMALI, 0.41 ± 0.41.
To PDIYLYFLKKVMRS belongs -1.57 ± 1.1.
To YIAYGDFSSFFTLNIS belongs 7.476 ± 0.047.
LTCSKSPIWWAIIFVGYFTN yielded an amyloid nucleation score of 0.022 ± 0.62.
Under IHNKWNKMYDRPYLIKIVAS stands -0.37 ± 0.36.
To YLLNLEF belongs “inactive”.
To DSISFNPYRMLRDNYLLHVC belongs 1.9 ± 0.13.
As to GRSSAWFNEGRLW, the amyloid nucleation score turned out to be 0.383 ± 0.39.
Under FRLYPVPESKDLGRPGMPRQ stands 0.308 ± 0.23.
To MCWVANNVTNPVEVEYERSL belongs -0.821 ± 1.1; to FVQSNYDSSF, “inactive”; to TDGELDSPQ, 0.165 ± 0.37.
